Results from US6723321B2 (priority 1998, dated 2004).
Where two headings read alike, the source gives them in different places.

What was measured:
[1] = target: T1, RhlI (Pseudomonas aeruginosa, UniProt P54291); test: radioactive in vitro assay for RhlI activity (C14-labeled SAM); type: biochemical; conditions: for Activity in radioactive assay: potential acyl group substrates, 61 μM SAM as co-substrate
[2] = target: T1, RhlI; type: biochemical
[3] = target: T1, RhlI; type: biochemical; conditions: acyl substrate varied, SAM held at 95 μM; for Km: read-out: Apparent Km
[4] = test system: CCCC(=O)SCCNC(=O)CCNC(=O)[C@H](O)C(C)(C)COP(=O)(O)OP(=O)(O)OC[C@H]1O[C@@H](n2cnc3c(N)ncnc32)[C@H](O)[C@@H]1OP(=O)(O)O; test: purified protein, by the assay type; conditions: other: acyl substrate varied, SAM held at 95 μM
[5] = target: T1, RhlI; type: biochemical; conditions: 61 μM SAM as co-substrate; tested in the R. solanacearum bioassay
[6] = potential acyl group substrates, 61 μM SAM as co-substrate

T1 sequence (P54291 whole entry, looked up): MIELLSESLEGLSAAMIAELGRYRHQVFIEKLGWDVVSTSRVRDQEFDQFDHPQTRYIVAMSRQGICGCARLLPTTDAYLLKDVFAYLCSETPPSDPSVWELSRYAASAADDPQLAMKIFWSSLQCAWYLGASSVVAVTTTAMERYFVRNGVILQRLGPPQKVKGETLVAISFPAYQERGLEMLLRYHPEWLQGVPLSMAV

Molecule	Activity in radioactive assay [1]	Activity in butyryl HSL bioassay [2, 6]	Km [3]	Apparent Vmax [3]	also measured
CCCCCC(=O)SCCNC(=O)CCNC(=O)[C@H](O)C(C)(C)COP(=O)(O)OP(=O)(O)OC[C@H]1O[C@@H](n2cnc3c(N)ncnc32)[C@H](O)[C@@H]1OP(=O)(O)O [hexanoyl-CoA]	4 nmoles butyryl HSL formed min^−1 mg^−1	–	–	–	–
butyryl-ACP: acylated acyl carrier protein with attached butyryl group; acyl substrate of RhlI	650 nmoles butyryl HSL formed min^−1 mg^−1	532 nmoles butyryl HSL formed min^−1 mg^−1	6 µM	–	–
hexanoyl-ACP: acylated acyl carrier protein with attached hexanoyl group	263 nmoles butyryl HSL formed min^−1 mg^−1	91 nmoles butyryl HSL formed min^−1 mg^−1	8 µM	9.6 mol of butyryl HSL min^−1 mol^−1 of RhlI	–
RhlI (Pseudomonas aeruginosa PAO1)	–	–	–	–	Km [4]: 230 µM
NC(=O)C1=CN([C@@H]2O[C@H](COP(=O)(O)OP(=O)(O)OC[C@H]3O[C@@H](n4cnc5c(N)ncnc54)[C@H](OP(=O)(O)O)[C@@H]3O)[C@@H](O)[C@H]2O)C=CC1 [NADPH]	–	–	–	–	effect on the reaction rate ([1]; included with butyryl-ACP and SAM): slightly increase
N[C@@H](CCS)C(=O)O [homocysteine]	–	–	–	–	activity, fold less when compared to reactions containing SAM ([2]; butyryl HSL bioassay, amino acid substrate): at least 150 fold; Activity in butyryl HSL bioassay ([2]; potential amino acid substrates, 39 μM butyryl ACP as co-substrate): <2 nmoles butyryl HSL formed min^−1 mg^−1
octanoyl-ACP: acylated acyl carrier protein with attached octanoyl group	28 nmoles butyryl HSL formed min^−1 mg^−1	–	43 µM	1.8 mol of butyryl HSL min^−1 mol^−1 of RhlI	Activity in radioactive assay ([1]; listed as Octanoyl-ACP): demonstrated to be a substrate of RhlI; Activity in bioassay (R. solanacearum bioassay) [5]: not detected as a substrate
CCCC(=O)SCCNC(=O)CCNC(=O)[C@H](O)C(C)(C)COP(=O)(O)OP(=O)(O)OC[C@H]1O[C@@H](n2cnc3c(N)ncnc32)[C@H](O)[C@@H]1OP(=O)(O)O [butyryl-CoA]	82 nmoles butyryl HSL formed min^−1 mg^−1	38 nmoles butyryl HSL formed min^−1 mg^−1	–	2.1 mol of butyryl HSL min^−1 mol^−1 of RhlI	–
